Earlier results, collected in article PMC2912330.
Where two headings read alike, the source gives them in different places.

Columns and labels:
VEGFR2 (Homo sapiens) [1] = molecular target: VEGFR2 (Homo sapiens) (UniProt P35968)
VEGFR2 (Homo sapiens) [2] = molecular target: VEGFR2 (Homo sapiens) (UniProt P35968); remark: listed apart in the source

Sequence of UniProt P35968 (P35968 20-1356): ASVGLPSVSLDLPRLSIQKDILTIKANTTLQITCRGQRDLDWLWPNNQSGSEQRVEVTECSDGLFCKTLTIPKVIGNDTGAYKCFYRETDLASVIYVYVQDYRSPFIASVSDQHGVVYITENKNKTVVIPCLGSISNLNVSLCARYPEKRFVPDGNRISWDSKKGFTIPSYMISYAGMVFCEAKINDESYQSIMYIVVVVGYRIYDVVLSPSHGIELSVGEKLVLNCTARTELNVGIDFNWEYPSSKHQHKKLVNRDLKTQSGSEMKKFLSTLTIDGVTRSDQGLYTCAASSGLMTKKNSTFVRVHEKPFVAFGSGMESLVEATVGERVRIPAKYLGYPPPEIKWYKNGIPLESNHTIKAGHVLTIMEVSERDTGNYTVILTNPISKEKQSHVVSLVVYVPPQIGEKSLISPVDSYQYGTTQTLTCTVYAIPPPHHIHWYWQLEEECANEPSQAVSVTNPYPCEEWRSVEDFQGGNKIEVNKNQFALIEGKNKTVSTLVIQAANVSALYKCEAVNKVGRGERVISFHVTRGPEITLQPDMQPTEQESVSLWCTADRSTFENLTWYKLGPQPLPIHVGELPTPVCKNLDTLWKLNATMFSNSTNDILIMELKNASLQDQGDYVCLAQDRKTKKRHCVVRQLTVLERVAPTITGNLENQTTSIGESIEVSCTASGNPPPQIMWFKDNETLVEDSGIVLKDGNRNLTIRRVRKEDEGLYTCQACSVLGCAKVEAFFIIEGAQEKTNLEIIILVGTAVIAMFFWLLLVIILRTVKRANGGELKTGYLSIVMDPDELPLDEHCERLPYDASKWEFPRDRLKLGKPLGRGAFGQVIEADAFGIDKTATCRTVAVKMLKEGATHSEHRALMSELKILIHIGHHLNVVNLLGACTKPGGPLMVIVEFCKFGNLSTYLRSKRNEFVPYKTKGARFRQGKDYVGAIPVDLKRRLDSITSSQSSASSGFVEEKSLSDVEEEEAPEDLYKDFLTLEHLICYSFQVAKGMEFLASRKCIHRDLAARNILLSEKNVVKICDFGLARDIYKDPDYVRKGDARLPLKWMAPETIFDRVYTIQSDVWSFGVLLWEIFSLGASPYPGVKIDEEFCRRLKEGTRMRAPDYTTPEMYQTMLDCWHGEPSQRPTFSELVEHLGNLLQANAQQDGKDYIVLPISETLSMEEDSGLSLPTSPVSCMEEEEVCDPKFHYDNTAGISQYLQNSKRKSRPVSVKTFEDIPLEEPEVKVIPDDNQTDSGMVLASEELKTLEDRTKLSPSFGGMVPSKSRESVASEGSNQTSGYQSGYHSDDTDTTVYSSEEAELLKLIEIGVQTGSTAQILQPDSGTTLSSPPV

Kd (VEGFR2 (Homo sapiens) [1]) [nM] | Kd (VEGFR2 (Homo sapiens) [2]) [nM] | Substance
0.1 |  | VEGF165 VEGF165 (from UniProt P15692)
 | 0.1 | VEGF114 VEGF114 (from UniProt P15692)
